# From the RNAGym collection of RNA variant scans (doi:10.1073/pnas.2313332121)
# B1: TPR t1 (parent)
# chain: GACCAAUCUGCCCUCAGAGCUCGAGAACAUCUUCGGAUGCAGAGGAGGCAGGCUUCGGUGGCGCGAUAGCGCCAACGUCCUCAACCUCCAAUGCAUCCCACCACAUGAUGAUGCCUGAAGAGCCUUGGUUUUUUG
# Variants of: B1
# Assay: polymerase ribozyme fitness, log enrichment relative to wild type (log ratio); higher = more active; in vitro selection for triplet polymerase activity
# How it was run: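 Fitness is a logarithmic measure of how a genotype enriched relative to the wild type, with replicate averages weighted by inverse variance. The logarithm uses base 2, and enrichment came from Illumina sequencing of input and output libraries. Those libraries were PCR-built, transcribed mutants of each subunit of a heterodimeric triplet polymerase ribozyme, passed through one triplicate in vitro selection round that included frozen incubation at −7 °C, gel excision of extended constructs and streptavidin-bead capture. Genotypes were kept only if they had ≥10 input reads and ≥1 read per output.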
row,Variant,polymerase ribozyme fitness (log ratio)
1,A74U U96A A100U G113U,-6.78
2,C73A U78C,-0.268
3,G77A C89A,-1.73
4,C80A G93A C124A G128A,-5.36
5,A75U C85A U92C G113C,-3.69
6,C73U A90G C124A,1.85
7,C79U A111U,-3.01
8,C73U A91C,-1.74
9,C73U U87A C115A,-0.423
10,C79A G127U,-2.57
11,U81C C124A,0.431
12,G77A C79U G120U C123A,0.335
13,C73G C115A,-1.04
14,A75G U106G C124A,0.661
15,C73G U92A,-5.66
16,C80U U112A,0.959
17,U78A G120A,0.814
18,C73A C88U C99A A100C,-3.87
19,G77U U92G C124U,-1.84
20,U78G C94G,-0.85
21,C73A C123U,1.47
22,C80U C101U A121C,1.19
23,U78A A95G C102A,-2.41
24,U78A A105G,-2.86

row,Variant,polymerase ribozyme fitness (log ratio)
1,C73A C102U U125G,-2.45
2,C80U U112G G117C,-5.23
3,G77U U125A,-1.21
4,U78C A95C C123A,0.0148
5,C76A A84U U106A G120U,-2.24
6,A74G C89G,-1.41
7,C76G A95G,-0.229
8,A74U G128U U130C,-0.708
9,C73G C80U C123G,-0.835
10,G77C C104A U116G G122A,-5.01
11,U78C C124G,1.08
12,U78C A111C,0.402
13,C73U C86A C97U C102U,-4.11
14,G77A U81A,-1.01
15,C79A A100C,-2.29
16,A74U G113A,-1.11
17,A74U G113U,-3.37
18,C80U C102A,-2.21
19,C79A U92C C98G C104A C114G,-7.71
20,C80U U106C,-0.325
21,G77A C101A,-1.18
22,C79A U87C G113U,-4.71
23,A74U C88U U116A,-3.69
24,C73G A90C,-2.17

row,Variant,polymerase ribozyme fitness (log ratio)
1,A74U C85U C94A,-1.55
2,C79G C115G,-4.07
3,C73G U96G C115G,-3.54
4,G77A G120A G128C,-2.08
5,A74U G93A C123A,-0.279
6,A75G U129C,-0.465
7,C76A C115U U129A,-4.13
8,U78C U81A U87G C123G,1.68
9,A74G C114G,-2.02
10,G77A C82G,-1.13
11,U78C U126C U129C,-2.29
12,C79A G117C,-5.12
13,C79A G117A,-2.46
14,C73U C80U,-0.17
15,C80U G110A,-1.21
16,G77A C82A U109A,-4.87
17,C79A C89A,-3.43
18,C76G C82U,-0.815
19,C80U A90U,-0.991
20,C79U A91U,-2.48
21,A74U C80U,-1.18
22,C79U C99A U112C,-4.18
23,C73G C82U,-0.556
24,A74G C123G,1.31

row,Variant,polymerase ribozyme fitness (log ratio)
1,A74G C123U,1.13
2,C76G U78A U81A C89G A119U,-3.52
3,C73A G93C,-0.962
4,U78G A111U U131A,-2.99
5,C80U A111G,-0.196
6,C76U C82A G120A,0.131
7,G77C C97U U109A,-5.64
8,A74U C89U,-0.535
9,C79U C104A,-2.22
10,C79A C115A,-2.1
11,C79U C88U,-0.115
12,C73U G113A G117A,-6.9
13,U78C G113A G135U,-2.01
14,U78C A111G G117A,-2.7
15,U78C A84G G128A,-3.53
16,G77C C102U,-2.02
17,U81A C94U G117A C123G,-5.66
18,U78C U130G,-0.922
19,A74U U109C,-4.13
20,G77A A95C,-0.839
21,U81C C114U,-1.96
22,A74U G117A U130C,-2.62
23,G77C C89G G122U C123U,-1.58
24,C73U A119G,1.13

row,Variant,polymerase ribozyme fitness (log ratio)
1,C73U A119U,-0.348
2,C80A C86G,-5.2
3,U78C G135A,-1.44
4,U78A U112A,1.06
5,G77U A105G,-2.9
6,G77U C79A,-2.32
7,C79A U81C C89U G93U G120C C124U,-3.62
8,C80A U112A,-2.64
9,U78A G93A C97A A121C,-5.11
10,C79A U112A G128U,-3.42
11,U81C C85U A118G G122U C124U U129A,-3.58
12,U78C C80U C99U A121G,-3.12
13,A75U C86U C88U,0.294
14,C76U C123A,0.138
15,U78A C124U U125A U133C,1.84
16,G77A C79U,0.354
17,C79U G135U,-0.964
18,C73U U106C,-0.194
19,A75G C85U U130C,-0.982
20,C73U U109C,-3.63
21,C73U U109G,-4.33
22,U78C A91G G93U,-2.35
23,U78A C79A A95C,-4.32
24,A74G C101U,0.132

row,Variant,polymerase ribozyme fitness (log ratio)
1,G77U C79U U106C,-0.595
2,G77U C79U U106A,-0.0765
3,G77U C114G,-2.88
4,C73U C115A,-0.495
5,C80G U87G C88A U112A,-4.77
6,U78C C88A,-0.513
7,G77U U106C C124A,-3.43
8,U81C C82A,-1.8
9,G77C A95U,-0.809
10,U78C U131C,-0.936
11,U78C U116G,-2.79
12,C76A A119G,0.169
13,C73U C102A,-1.58
14,C73U C82U A91U A100U,-3.21
15,A74C G120A U132G U134A,0.272
16,C79U C82A U87A G110C,-4.6
17,U78A U109C,-4.47
18,C79U C98A,-4.92
19,G77C U87A G93C A105U C115A,-5.31
20,C73G C97G C114A A121G,-5.74
21,C80U C114A,-1.85
22,A74U A83U A84C G120U G122A U125A,-1.84
23,U78C C115U,0.0691
24,A74U C99G U106A,-6.33

row,Variant,polymerase ribozyme fitness (log ratio)
1,G77U U96A,-1.04
2,C79G U92C,-3.03
3,C73U G117C,-2.95
4,C73U G117U,-1.43
5,U78C A84C U96G U116G,-3.6
6,A75G U116A G117U C123U,-2.78
7,A75C G77C,-1.58
8,U81A U129C,-1.37
9,U81A G110A,-2.37
10,C79U C89A G117U C123G,-1.41
11,C73G C94A,-2.58
12,C73G C94G,-1.94
13,A74U U87G,0.353
14,C76A A95U C115U,-4.9
15,C73G U81A C85U C115U,-5.48
16,C79U G113A,-1.38
17,A74G U96G,-0.295
18,C73A G127U,-0.602
19,C76A C89U U129A,-2.51
20,C79U C94A C99U A121G,-2.9
21,C73A U132A,0.117
22,C79A C89A A118G,-3.86
23,U78C A83U,-0.61
